According to publication PMC7820495:
Where a chain is given by its changes, count along the chain named. Names and notes keep the numbering of the source.

B1: MBP-VCP^N-D1 (Drosophila VCP, N-terminal and first D1 ATPase domain), Q7KN62 P134L (protein)
chain: MADSKGEDLATAILKRKDRPNRLIVEEAQNDDNSVVSLSQAKMDELQLFRGDTVILKGKRRKETVCIVLSDDTCPDEKIRMNRVVRNNLCVHLSDVVSVQSCPDVKYGKRVRILPIDESTEGVTGNLFEIYLKLYFLEAYRPIHMGDNFIVRAAMRPIEFKVVLTDPEPYCIVAPETVIFCDGDPIKREEEEESLNAVGYDDIGGCRKQLAQIKEMVELPLRHPSLFKAIGVKPPRGILMYGPPGTGKTLIARAVANETGAFFFLINGPEIMSKLAGESESNLRKAFEEAEKNSPAIIFIDEIDAIAPKRDKTHGEVERRIVSQLLTLMDGMKKSSHLIVMAATNRPNSIDPALRRFGRFDREIDIGIPDATGRLEVLRIHTKNMKLHDDVDLEQIAAESHGHVGADLASLCSEAALQQIREKMDLIDLEDDKIDAEVLASLAVTMENFRYAMTKSSPSALRETVVEVPNTTWTDIGGLESVKKELQELVQYPVEHPDKFLKFGMQPSRGVLFYGPPGCGKTLLAKAIANECQANFISVKGPELLTMWFGESEANVRDIFDKARSAAPCVLFFDELDSIAKARGGNVGDAGGAADRVINQILTEMDGMGAKKNVFIIGATNRPDIIDPAILRPGRLDQLIYIPLPDDKSREAILKANLRKSPLAKEVDLTYIAKVTQGFSGADLTEICQRACKLAIRQAIEAEIRREKERAENQNSAMDMDEDDPVPEITSAHFEEAMKFARRSVSDNDIRKYEMFAQTLQQSRGFGQNFRFPGQTGNTSGSGNNLPVNSPGDNGDDDLYS
B2: MBP-VCP^N-D1 (Drosophila VCP, N-terminal and first D1 ATPase domain), Q7KN62 L195W (protein)
chain: B1 chain with L134P, L195W
B3: MBP-VCP^N-D1 (Drosophila VCP, N-terminal and first D1 ATPase domain), Q7KN62 R188Q (protein)
chain: B1 chain with L134P, R188Q
B4: MBP-VCP^N-D1 (Drosophila VCP, N-terminal and first D1 ATPase domain), Q7KN62 N384H (protein)
chain: B1 chain with L134P, N384H
B5: MBP-VCP^N-D1 (Drosophila VCP, N-terminal and first D1 ATPase domain), Q7KN62 A436S (protein)
chain: B1 chain with L134P, A436S
B6: MBP-VCP^N-D1 (Drosophila VCP, N-terminal and first D1 ATPase domain), Q7KN62 A154R (protein)
chain: B1 chain with L134P, A154R
B7: MBP-VCP^N-D1 (Drosophila VCP, N-terminal and first D1 ATPase domain), Q7KN62 R156C (protein)
chain: B1 chain with L134P, R156C
B8: MBP-VCP^N-D1 (Drosophila VCP, N-terminal and first D1 ATPase domain), Q7KN62 R152H (protein)
chain: B1 chain with L134P, R152H
B9: MBP-VCP^N-D1 (Drosophila VCP, N-terminal and first D1 ATPase domain), Q7KN62 A229E (protein)
chain: B1 chain with L134P, A229E
B10: MBP-VCP^N-D1 (Drosophila VCP, N-terminal and first D1 ATPase domain), Q7KN62 T259A (protein)
chain: B1 chain with L134P, T259A

Target: T1, GST-SVIP (Drosophila SVIP, CG32039), Q8IQC6
T1 chain: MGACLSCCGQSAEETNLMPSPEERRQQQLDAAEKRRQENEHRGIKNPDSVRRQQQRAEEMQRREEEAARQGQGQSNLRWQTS
Assay: in vitro binding titration assay
Conditions: chain shown with the change;; parent: 0.70 uM

Point of comparison: B3, Kd 1500 nM. Against it:
- B1 — 14-fold higher, 21600 nM
- B2 — 2.5-fold lower, 600 nM
- B4 — within 1.5-fold, 1160 nM
- B5 — 2.5-fold lower, 600 nM
- B6 — 2.4-fold higher, 3610 nM
- B7 — within 1.5-fold, 1770 nM
- B8 — 2.3-fold lower, 640 nM
- B9 — 2.6-fold lower, 580 nM
- B10 — within 1.5-fold, 1230 nM
